Experimental data taken from patent US20180327746, “Alpha-AMYLASE-BINDING NUCLEIC ACID MOLECULE AND USE THEREOF” (NEC Solution Innovators, Ltd., published 2018).

Experiments:
Details in all cases: tags: none stated; commercial human alpha-amylase, Lee Biosolutions; label: 3' poly(dA)20 captured on biotin-poly(dT)20
[1] = molecular target: T1, alpha-amylase (Homo sapiens, UniProt P0DUB6 P0DUB6:16-511); assay: SPR; SPR buffer with 1 mM MgCl2, pH 7.4; Chi2 17.73
T1 sequence: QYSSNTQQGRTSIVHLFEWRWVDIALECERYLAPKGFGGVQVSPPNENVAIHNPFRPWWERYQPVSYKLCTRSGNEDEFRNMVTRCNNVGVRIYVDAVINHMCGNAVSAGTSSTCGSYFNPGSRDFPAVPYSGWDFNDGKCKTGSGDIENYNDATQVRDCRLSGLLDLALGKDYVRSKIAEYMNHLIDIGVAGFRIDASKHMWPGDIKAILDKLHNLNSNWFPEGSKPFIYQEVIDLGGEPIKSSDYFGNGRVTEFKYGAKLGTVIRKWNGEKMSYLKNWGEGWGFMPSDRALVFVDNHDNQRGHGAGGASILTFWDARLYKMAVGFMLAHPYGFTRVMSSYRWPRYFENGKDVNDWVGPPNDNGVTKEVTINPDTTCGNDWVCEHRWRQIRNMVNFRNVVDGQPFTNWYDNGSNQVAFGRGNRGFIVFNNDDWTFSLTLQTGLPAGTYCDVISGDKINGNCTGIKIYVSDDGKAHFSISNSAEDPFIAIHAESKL
Description: (§1) Biotinylated poly(dT) at 5 μmol/L was injected to a flow cell of the sensor chip using ultrapure water (DDW), and the binding was allowed to proceed until the signal intensity (RU: Resonance Unit) reached about 900 RU. The biotinylated poly(dT) was prepared by biotinylating the 5′ end of 20-mer deoxythymidine. Then, the poly(dA)-added aptamer at 200 nmol/L was injected to the flow cell of the chip using an SPR buffer at a flow rate of 25 μL/min for 80 seconds, and the binding was allowed to proceed until the signal intensity reached about 800 RU. […] With 0 seconds being the start of the injection, the mean value of signal intensities from 115 seconds to 125 seconds was determined. […] Then, the value (B/A) obtained by dividing the protein binding measured value (B) by the aptamer immobilization measured value (A) was determined as a relative value (Relative Unit).
(§2) The binding ability of the aptamers was analyzed by SPR in the same manner as in Example 1, except that the concentration of the α-amylase in the specimen was set to a plurality of values. The concentration was set to 20 nmol/L, 10 nmol/L, 5 nmol/L, 2.5 nmol/L, and 1.25 nmol/L. Then, from the results obtained by the SPR analysis, the kinetic parameter and the chi-squared value were calculated.

[2] = molecular target: T1, alpha-amylase; assay: SPR; 400 nM amylase, 1 mM MgCl2, pH 7.4
Description: The analysis of the binding ability was carried out using a ProteON XPR36 (BioRad) in accordance with its instructions for use.
First, as a sensor chip designed specifically for the ProteON, a streptavidin-immobilized chip (trade name: ProteOn NLC Sensor Chip, BioRad) was set in the ProteON XPR36. Biotinylated poly(dT) at 5 μmol/L was injected to a flow cell of the sensor chip using ultrapure water (DDW), and the binding was allowed to proceed until the signal intensity (RU: Resonance Unit) reached about 900 RU. The biotinylated poly(dT) was prepared by biotinylating the 5′ end of 20-mer deoxythymidine. Then, the poly(dA)-added aptamer at 200 nmol/L was injected to the flow cell of the chip using an SPR buffer at a flow rate of 25 μL/min for 80 seconds, and the binding was allowed to proceed until the signal intensity reached about 800 RU. […] Subsequently, the specimen was injected using the SPR buffer at a flow rate of 50 μL/min for 120 seconds, followed by washing performed by flowing the SPR buffer under the same conditions for 300 seconds. The concentration of the human α-amylase in the specimen was set to 400 nmol/L. Signal intensity measurement was performed concurrently with the injection of the specimen and the washing with the SPR buffer. With 0 seconds being the start of the injection, the mean value of signal intensities from 115 seconds to 125 seconds was determined. […] Then, the value (B/A) obtained by dividing the protein binding measured value (B) by the aptamer immobilization measured value (A) was determined as a relative value (Relative Unit).

[3] = molecular target: T1, alpha-amylase; assay: SPR; SPR buffer with 1 mM MgCl2, pH 7.4; Chi2 5.18
Description: as §1, §2

[4] = molecular target: T1, alpha-amylase; assay: SPR; SPR buffer with 1 mM MgCl2, pH 7.4; Chi2 23.63
Description: as §1, §2

[5] = molecular target: T1, alpha-amylase; assay: SPR; SPR buffer with 1 mM MgCl2, pH 7.4; Chi2 24.85
Description: as §1, §2

[6] = molecular target: T1, alpha-amylase; assay: SPR; SPR buffer with 1 mM MgCl2, pH 7.4; Chi2 30.79
Description: as §1, §2

B1: AML1243KR8m2s63 (ssDNA)
DNA: GGATACCTTAACGCCGCCTATTGCTATGAGTAGTGTTTGTAGGTCTGGCATGCGAGTTGCACCAAAAAAAAAAAAAAAAAAAA
modifications: KS9 modified T (formula 1) at underlined T, i.e. T 3' of the 5' primer region
Binder B1 has a Kd [1] of 3.93 nM.

B2: AML1243KR8m5 (ssDNA)
DNA: GGATACCTTAACGCCGCCTATTGAGTTCAACAATGACTAGTGTTTGTCGGTCTGAGTTGCACCCGTCTCGAAATCAAAAAAAAAAAAAAAAAAAA
modifications: KS9 modified T (formula 1) at underlined T, i.e. T 3' of the 5' primer region
B2: binds [2].

B3: AML1243KR8m1s65_FW_s15 (ssDNA)
DNA: TAACGCCGCCTATTGTGAACGACGTGAATAGTGTTTGTGGGTCCGGAGTTGCACCCGAAAAAAAAAAAAAAAAAAAA
modifications: KS9 modified T (formula 1) at underlined T, i.e. T 3' of the 5' primer region
B3 showed a Kd [3] of 0.447 nM.

B4: AML1243KR8m3s63 (ssDNA)
DNA: GGATACCTTAACGCCGCCTATTGCGAGGTGTGGCTAGTCGTTATAGGTCCACCGAGTTGCACCAAAAAAAAAAAAAAAAAAAA
modifications: KS9 modified T (formula 1) at underlined T, i.e. T 3' of the 5' primer region
Work on B4 yielded a Kd [4] of 16.4 nM.

B5: AML1243KR8m2s49Fw_s20 (ssDNA)
DNA: TACCTTAACGCCGCCTATTGCTATGAGTAGTGTTTGTAGGTCTGGCAAAAAAAAAAAAAAAAAAAA
modifications: KS9 modified T (formula 1) at underlined T, i.e. T 3' of the 5' primer region
In the case of B5, the Kd [5] is reported as 4.23 nM.

B6: AML1243KR8m3s63Fw_s15 (ssDNA)
DNA: TAACGCCGCCTATTGCGAGGTGTGGCTAGTCGTTATAGGTCCACCGAGTTGCACCAAAAAAAAAAAAAAAAAAAA
modifications: KS9 modified T (formula 1) at underlined T, i.e. T 3' of the 5' primer region
B6 was tested, and the Kd [6] was 18.7 nM.

B7: AML2243KR8m3 (ssDNA)
DNA: GGATACCTTAACGCCGCCTATTGGTGTCACTAGTGTTTGTCGGTGCCAGCAAGGAGTTGCACCCGTCTCGAAATCAAAAAAAAAAAAAAAAAAAA
modifications: KS9 modified T (formula 1) at underlined T, i.e. T 3' of the 5' primer region
B7: binds [2].

B8: AML1243KR8m4 (ssDNA)
DNA: GGATACCTTAACGCCGCCTATTGATTCTCTGTGACTAGTGTTTGTAGGTCGCAGAGTTGCACCCGTCTCGAAATCAAAAAAAAAAAAAAAAAAAA
modifications: KS9 modified T (formula 1) at underlined T, i.e. T 3' of the 5' primer region
B8: binds [2].
